Data taken from US20200054723A1 (ALLAKOS, published 2020).
“And” between values parts separate entries of the source, which are not always exact repeats. Identical values can stand only once.

How the values were obtained:
[1] = molecular target: T1, recombinant human Siglec-8 extracellular domain (ECD) (human, UniProt Q9NYZ4 17-363); assay: ELISA, coated Siglec-8 ECD
T1 construct: extracellular domain; also called Siglec-8 ECD; full Siglec-8 ECD

[2] = molecular target: T2, human Siglec-8 on human cells (eosinophils, mast cells) (human, UniProt Q9NYZ4 17-499); assay: cell-based or functional assay
[3] = molecular target: T2, human Siglec-8 on human cells …; assay: cell-based or functional assay; remark: listed apart in the source
[4] = molecular target: T3, baboon Siglec-8 Domains 1, 2, and 3 Fusion Protein (olive baboon (Papio anubis)); assay: ELISA, coated fusion protein
T3 construct: fused to human Ig-Fc
Method: (§1) To identify the region comprising the epitope for anti-Siglec-8 antibodies, fusion proteins containing each of the Siglec-8 extracellular domains fused to human Ig-Fc were expressed and purified from CHO cells.
(§2) For the antibody binding assays, ELISA plates (MaxiSorp; Nunc) were coated overnight at 4° C. with fusion protein at 0.2 μg/ml and blocked for 1 hour at room temperature with 2% BSA in PBS. Antibodies at 1 μg/ml were added and the plates were incubated for 2 hours at room temperature. After washing the plates, horseradish peroxidase conjugated secondary antibody was added and the plates were incubated for 1 hour. Secondary antibodies were anti-human H+L HRP (Jackson ImmunoResearch, Catalog Number 709-035-149) for humanized antibodies or anti-mouse H+L HRP (Jackson ImmunoResearch, Catalog Number 715-035-151) for mouse antibodies. The plates were developed with TMB Substrate (Sigma, Catalog Number T0440-1L).

[5] = molecular target: T4, Dimeric Siglec-8 (human Siglec-8 ECD protein) (human, UniProt Q9NYZ4 17-363); assay: SPR (Biacore), antibody captured, dimeric Siglec-8 as analyte, 1:1 global fit (avidity)
T4 construct: extracellular domain; Analyte of the Biacore avidity assay
Method: Antibody avidity determination was carried out by SPR analysis using a Biacore T200. Binding of human Siglec-8 ECD protein to mouse, chimeric and humanized anti-Siglec-8 antibodies was measured on a […]. The capture antibodies (goat-anti-human-Fc and goat-anti-mouse-Fc from Jackson Immunoresearch) were immobilized on a CM5 chip according to manufacturer's protocol (Biacore, GE). Flow-cell 1, 2 and 3 were immobilized with anti-human, and flow cell 4 with anti-mouse antibodies. The assay was conducted at 25° C., at a flow rate of […]. Assay buffer was 20 mM Tris-HCl pH 8.3, 150 mM Sodium Chloride, 0.05% Polysorbate 20, 10% glycerol, 0.1% BSA, made in ultrapure water. Dimeric Siglec-8 (impurities of monomeric and oligomeric Siglec-8 were removed by size-exclusion chromatography) was diluted in assay buffer from 15 nM to […] with 2× dilutions. Antibodies were captured to a change of approximately 120 RU. Six-minute high performance injections were conducted, followed by 120-minute dissociations. Flow cells were regenerated with 50 mM glycine pH 1.5. Results were double blanked with an empty reference cell and multiple assay buffer injections, and analyzed with 1:1 global fit parameters.

[6] = molecular target: T3, baboon Siglec-8 Domains 1, 2, and 3 …; assay: ELISA, baboon cross-reactivity
Method: as §1, §2

[7] = molecular target: T5, human Siglec-8 Domains 1, 2, and 3 Fusion Protein (human); assay: Western blot of reduced SDS-PAGE (linear epitope)
T5 construct: fused to human Ig-Fc, expressed in CHO cells; also called Domain 1 + 2 + 3-Fc

[8] = molecular target: T1, recombinant human Siglec-8 …; assay: ELISA, coated Siglec-8 ECD; remark: listed apart in the source
[9] = molecular target: T6, human Siglec-8 Domain 1 Fusion Protein (human); assay: ELISA, coated fusion protein, antibody at 1 µg/ml
T6 construct: fused to human Ig-Fc, expressed in CHO cells; also called Domain 1-Fc
Method: as §1, §2

[10] = molecular target: T7, human Siglec-8 Domains 1 and 2 Fusion Protein (human); assay: ELISA, coated fusion protein, antibody at 1 µg/ml
T7 construct: fused to human Ig-Fc, expressed in CHO cells; also called Domain 1 + 2-Fc
Method: as §1, §2

[11] = molecular target: T5, human Siglec-8 Domains 1, 2, and 3 …; assay: ELISA, coated fusion protein, antibody at 1 µg/ml
Method: as §1, §2

[12] = molecular target: T6, human Siglec-8 Domain 1 Fusion Protein; assay: ELISA, coated fusion protein
Method: as §1, §2

T4 sequence (Q9NYZ4 17-363): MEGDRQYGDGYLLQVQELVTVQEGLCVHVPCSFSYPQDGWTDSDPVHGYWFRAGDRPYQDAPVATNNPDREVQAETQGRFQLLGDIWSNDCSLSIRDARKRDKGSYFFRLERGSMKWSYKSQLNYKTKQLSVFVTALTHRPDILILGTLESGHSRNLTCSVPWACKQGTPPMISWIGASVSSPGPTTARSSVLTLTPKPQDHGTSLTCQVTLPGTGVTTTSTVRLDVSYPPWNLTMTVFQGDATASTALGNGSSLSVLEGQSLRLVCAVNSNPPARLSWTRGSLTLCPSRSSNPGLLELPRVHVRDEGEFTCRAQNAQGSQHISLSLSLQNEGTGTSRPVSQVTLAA
T1 sequence (Q9NYZ4 17-363): as above
T2 sequence (Q9NYZ4 17-499): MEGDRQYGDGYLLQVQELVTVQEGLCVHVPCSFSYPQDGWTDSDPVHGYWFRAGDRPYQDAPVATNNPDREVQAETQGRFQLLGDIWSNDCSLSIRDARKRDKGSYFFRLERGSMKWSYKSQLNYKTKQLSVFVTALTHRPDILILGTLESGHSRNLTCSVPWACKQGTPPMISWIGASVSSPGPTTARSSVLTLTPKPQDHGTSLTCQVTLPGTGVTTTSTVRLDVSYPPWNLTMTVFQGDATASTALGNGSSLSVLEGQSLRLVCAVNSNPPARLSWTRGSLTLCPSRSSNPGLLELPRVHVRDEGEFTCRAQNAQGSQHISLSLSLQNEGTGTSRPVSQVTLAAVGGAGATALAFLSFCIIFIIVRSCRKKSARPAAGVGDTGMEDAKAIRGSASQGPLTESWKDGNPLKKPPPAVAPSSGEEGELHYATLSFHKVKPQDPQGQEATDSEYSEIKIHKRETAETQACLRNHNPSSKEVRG
T5 sequence (chain, as listed by the source limits assumed): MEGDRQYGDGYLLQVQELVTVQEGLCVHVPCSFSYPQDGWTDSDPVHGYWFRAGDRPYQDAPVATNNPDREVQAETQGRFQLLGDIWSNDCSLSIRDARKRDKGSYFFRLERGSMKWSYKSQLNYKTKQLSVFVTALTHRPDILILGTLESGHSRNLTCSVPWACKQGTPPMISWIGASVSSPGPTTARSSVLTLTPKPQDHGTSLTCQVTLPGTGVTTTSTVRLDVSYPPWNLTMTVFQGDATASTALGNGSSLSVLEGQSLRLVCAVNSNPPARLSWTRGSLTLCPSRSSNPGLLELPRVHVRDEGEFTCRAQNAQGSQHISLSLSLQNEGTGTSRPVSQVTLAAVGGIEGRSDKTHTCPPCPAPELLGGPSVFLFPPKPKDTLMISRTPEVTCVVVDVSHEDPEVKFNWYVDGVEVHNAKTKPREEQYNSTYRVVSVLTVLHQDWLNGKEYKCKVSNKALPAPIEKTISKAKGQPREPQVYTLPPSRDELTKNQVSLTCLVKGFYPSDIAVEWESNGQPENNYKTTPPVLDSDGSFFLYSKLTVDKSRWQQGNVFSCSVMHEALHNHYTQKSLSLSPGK
T3 sequence (chain, as listed by the source limits assumed): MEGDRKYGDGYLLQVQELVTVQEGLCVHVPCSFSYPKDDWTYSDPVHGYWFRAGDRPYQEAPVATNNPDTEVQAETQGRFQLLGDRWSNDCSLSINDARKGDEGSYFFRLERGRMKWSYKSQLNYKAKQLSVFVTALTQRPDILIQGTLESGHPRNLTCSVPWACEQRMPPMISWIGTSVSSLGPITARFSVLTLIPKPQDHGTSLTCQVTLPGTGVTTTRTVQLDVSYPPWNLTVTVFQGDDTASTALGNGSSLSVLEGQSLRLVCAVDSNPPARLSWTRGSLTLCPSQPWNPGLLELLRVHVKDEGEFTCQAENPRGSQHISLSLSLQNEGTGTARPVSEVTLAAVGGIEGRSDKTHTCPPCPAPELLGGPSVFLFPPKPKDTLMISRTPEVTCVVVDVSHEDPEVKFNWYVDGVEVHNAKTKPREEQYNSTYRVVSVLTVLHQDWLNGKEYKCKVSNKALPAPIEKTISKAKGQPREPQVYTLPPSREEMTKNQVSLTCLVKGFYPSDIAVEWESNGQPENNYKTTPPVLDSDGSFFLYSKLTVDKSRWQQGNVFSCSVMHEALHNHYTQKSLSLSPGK
T7 sequence (chain, as listed by the source limits assumed): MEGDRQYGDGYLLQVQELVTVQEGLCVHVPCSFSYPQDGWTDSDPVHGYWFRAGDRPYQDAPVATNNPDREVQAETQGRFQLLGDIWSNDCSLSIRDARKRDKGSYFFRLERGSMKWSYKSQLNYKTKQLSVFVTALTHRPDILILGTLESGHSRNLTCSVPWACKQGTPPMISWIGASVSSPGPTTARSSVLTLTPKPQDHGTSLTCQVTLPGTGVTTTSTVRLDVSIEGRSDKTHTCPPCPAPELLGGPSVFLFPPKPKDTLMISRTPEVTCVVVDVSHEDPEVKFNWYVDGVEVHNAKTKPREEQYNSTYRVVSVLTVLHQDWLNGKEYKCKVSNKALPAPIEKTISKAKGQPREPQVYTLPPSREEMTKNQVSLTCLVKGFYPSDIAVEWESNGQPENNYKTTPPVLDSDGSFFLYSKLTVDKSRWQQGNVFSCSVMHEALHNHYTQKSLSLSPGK
T6 sequence (chain, as listed by the source limits assumed): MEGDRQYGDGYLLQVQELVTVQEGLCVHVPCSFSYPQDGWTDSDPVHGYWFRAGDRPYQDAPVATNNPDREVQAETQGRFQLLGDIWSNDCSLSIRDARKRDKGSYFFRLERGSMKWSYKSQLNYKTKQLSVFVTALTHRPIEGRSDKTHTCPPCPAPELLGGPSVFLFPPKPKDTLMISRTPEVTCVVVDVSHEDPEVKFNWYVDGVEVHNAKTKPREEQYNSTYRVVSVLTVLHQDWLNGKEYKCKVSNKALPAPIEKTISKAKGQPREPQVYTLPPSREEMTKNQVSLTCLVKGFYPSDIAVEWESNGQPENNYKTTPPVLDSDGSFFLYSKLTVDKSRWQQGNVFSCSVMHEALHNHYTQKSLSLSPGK

B1: HA2KD (antibody, human IgG1, V domains shown)
VH: QVQLQESGPGLVKPSETLSLTCTVSGGSISIYGAHWIRQPPGKGLEWIGVIWAGGSTNYNSALMSRVTISVDTSKNQFSLKLSSVTAADTAVYYCARDGSSPYYYSMEYWGQGTLVTVSS
VL: EIVLTQSPATLSLSPGERATLSCSATSSVSYMHWFQQKPGQAPRLWIYSTSNLASGIPARFSGSGSGTDFTLTISSLEPEDFAVYYCQQRSSYPFTFGPGTKLDIK
notes: human IgG1/kappa
binding result [1]: no binding

B2: HA2KG (antibody, human IgG1, V domains shown)
VH: QVQLQESGPGLVKPSETLSLTCTVSGGSISIYGAHWIRQPPGKGLEWIGVIWAGGSTNYNSALMSRVTISVDTSKNQFSLKLSSVTAADTAVYYCARDGSSPYYYSMEYWGQGTLVTVSS
VL: EIVLTQSPATLSLSPGERATLSCSATSSVSYMHWYQQKPGQAPRLLIYSTSNLASGIPARFSGSGSGTDFTLTISSLEPEDFAVYYCQQRSSYPFTFGPGTKLDIK
notes: human IgG1/kappa
binding result [1]: no binding

B3: HA2KE (antibody, human IgG1, V domains shown)
VH: QVQLQESGPGLVKPSETLSLTCTVSGGSISIYGAHWIRQPPGKGLEWIGVIWAGGSTNYNSALMSRVTISVDTSKNQFSLKLSSVTAADTAVYYCARDGSSPYYYSMEYWGQGTLVTVSS
VL: EIVLTQSPATLSLSPGERATLSCSATSSVSYMHWFQQKPGQAPRLLIYSTSNLASGVPARFSGSGSGTDFTLTISSLEPEDFAVYYCQQRSSYPFTFGPGTKLDIK
notes: human IgG1/kappa
binding result [1]: no binding

B4: mouse 2E2 antibody (antibody, mouse IgG1, kappa)
heavy: QVQLKRASGPGLVAPSQSLSITCTVSGFSLTIYGAHWVRQPPGKGLEWLGVIWAGGSTNYNSALMSRLSISKDNSKSQVFLKINSLQTDDTALYYCARDGSSPYYYSMEYWGQGTSVTVSSAKTTPPSVYPLAPGSAAQTNSMVTLGCLVKGYFPEPVTVTWNSGSLSSGVHTFPAVLESDLYTLSSSVTVPSSPRPSETVTCNVAHPASSTKVDKKIVPRDCGCKPCICTVPEVSSVFIFPPKPKDVLTITLTPKVTCVVVDISKDDPEVQFSWFVDDVEVHTAQTQPREEQFNSTFRSVSELPIMHQDWLNGKEFKCRVNSAAFPAPIEKTISKTKGRPKAPQVYTIPPPKEQMAKDKVSLTCMITDFFPEDITVEWQWNGQPAENYKNTQPIMNTNGSYFVYSKLNVQKSNWEAGNTFTCSVLHEGLHNHHTEKSLSHSPG
light: QIILTQSPAIMSASPGEKVSITCSATSSVSYMHWFQQKPGTSPKLWIYSTSNLASGVPVRFSGSGSGTSYSLTISRMEAEDAATYYCQQRSSYPFTFGSGTKLEIKADAAPTVSIFPPSSEQLTSGGASVVCFLNNFYPKDINVKWKIDGSERQNGVLNSWTDQDSKDSTYSMSSTLTLTKDEYERHNSYTCEATHKTSTSPIVKSFNRNEC
notes: murine IgG1/kappa; also called m2E2; murine 2E2
Mean EC50 (ng/ml) for eosinophil depletion [2]: 6.8 ng/mL | Mean EC50 (ng/ml) for eosinophil killing (2 donors) [3]: 6.9 ng/mL | binding result [4]: no binding (tested: 1 µg/ml) | Kd [5]: 0.028 nM | koff [5]: 1.54e-05 s⁻¹ | kon [5]: 556000 M⁻¹ s⁻¹

B5: murine 1H10 antibody (antibody, mouse IgG1, V domains shown)
VH: EVQLQQSGAELVRPGASVKLSCTASGFNIKDYYMYWVKQRPEQGLEWIGRIAPEDGDTEYAPKFQGKATVTADTSSNTAYLHLSSLTSEDTAVYYCTTEGNYYGSSILDYWGQGTTLTVSS
VL: DIQMTQTTSSLSASLGDRVTISCRASQDITNYLNWYQQKPDGTVKLLIYFTSRLHSGVPSRFSGSGSGTDYSLTISNLEQEDIATYFCQQGNTLPWTFGGGTKLEIK
notes: murine IgG1 heavy chain and kappa light chain
Mean EC50 (ng/ml) for eosinophil killing (2 donors) [3]: 41 ng/mL | binding result [6]: binds | binding result [7]: binds

B6: murine 4F11 antibody (antibody, mouse IgG1, V domains shown)
VH: QVQLQQSGAELVKPGASVKISCKASGYAFRSSWMNWVKQRPGKGLEWIGQIYPGDDYTNYNGKFKGKVTLTADRSSSTAYMQLSSLTSEDSAVYFCARLGPYGPFADWGQGTLVTVSA
VL: QIVLTQSPAIVSASPGEKVTMTCSASSSVSYMYWYQQRPGSSPRLLIYDTSSLASGVPVRFSGSGSGTSYSLTISRIESEDAANYYCQQWNSDPYTFGGGTKLEIK
notes: as for B5
Mean EC50 (ng/ml) for eosinophil killing (2 donors) [3]: 5.9 ng/mL | binding result [6]: binds | binding result [7]: binds

B7: HEKA IgG1 antibody (antibody)
heavy: not shown
light: EIVLTQSPATLSLSPGERATLSCSATSSVSYMHWFQQKPGQAPRLLIYSTSNLASGIPARFSGSGSGTDFTLTISSLEPEDFAVYYCQQRSSYPFTFGPGTKLDIKRTVAAPSVFIFPPSDEQLKSGTASVVCLLNNFYPREAKVQWKVDNALQSGNSQESVTEQDSKDSTYSLSSTLTLSKADYEKHKVYACEVTHQGLSSPVTKSFNRGEC
Mean EC50 (ng/ml) for eosinophil depletion [2]: 4.3 ng/mL | EC50 [8]: 0.068 nM and 0.054 nM and 0.064 nM and 0.112 nM | binding result [9]: binds | binding result [10]: binds | binding result [11]: binds | Kd [5]: 0.017 nM | koff [5]: 1.11e-05 s⁻¹ | kon [5]: 638000 M⁻¹ s⁻¹

B8: murine 1C3 antibody (antibody, mouse IgG2a, V domains shown)
VH: EVQVVESGGDLVKSGGSLKLSCAASGFPFSSYAMSWVRQTPDKRLEWVAIISSGGSYTYYSDSVKGRFTISRDNAKNTLYLQMSSLKSEDTAMYYCARHETAQAAWFAYWGQGTLVTVSA
VL: QIVLTQSPAIMSASPGEKVTMTCSASSSVSYMHWYQQKSGTSPKRWIYDTSKLAYGVPARFSGSGSGTSYSLTISSMEAEDAATYYCQQWSSNPPTFGGGTKLEIK
notes: murine IgG2a heavy chain and kappa light chain
Mean EC50 (ng/ml) for eosinophil killing (2 donors) [3]: 7.7 ng/mL | binding result [12]: no binding (tested: 1 µg/ml) | binding result [4]: no binding (tested: 1 µg/ml) | binding result [10]: binds | binding result [11]: binds
